Experimental data reported in patent US20260144818A1, “ARMED CHIMERIC RECEPTORS AND METHODS OF USE THEREOF” (Senti Biosciences, Inc., priority 2022, published 2026).

Test system: tumor target cells that constitutively express a fluorescent reporter (mKate)
Assay: Serial killing screen of IL15 formats and combinations with IL21 or IL7
Format: cell-based
Experimental: 6 to 7 days after transduction, NK cells were collected, counted and seeded in a co-culture with tumor target cells that constitutively express a fluorescent reporter (mKate) at the appropriate effector to target (E:T) ratios. Tumor target cell growth (area) was quantified using an imaging-based system (Incucyte, Sartorius). After 48 to 72 hours of co-culture, new target cells were plated, and the NK cells were collected from the original plates and transferred to newly seeded targets for a 2nd or 3rd tumor re-challenge (serial killing). Target cell area was quantified and compared across different conditions. […] Similar serial target cell killing is shown at a different E:T ratio in FIG. 60E.
Additionally, various constructions of a chimeric protein containing IL15 tethered to the IL15 receptor (FIG. 61A) was tested.

B1: IL7 with crIL15: CAR-NK cells co-expressing IL7 (SEQ ID NO: 394) with crIL15 (protein, UniProt P13232 26-177, looked up)
Interleukin-7: DCDIEGKDGKQYESVLMVSIDQLLDSMKEIGSNCLNNEFNFFKRHICDANKEGMFLFRAARKLRQFLKMNSTGDFDLHLLKVSEGTTILLNCTGQVKGRKPAALGEAQPTKSLEENKSLKEQKKLNDLCFLKRLLQEIKTCWNKILMGTKEH
serial target cell killing: no improvement in serial target cell killing
